# Measurements reported in patent US20230012273A1 (Boehringer Ingelheim, published 2023).
# Legend:
# Experiment in all cases: SPR, Ab captured, ECD-His analyte
# [1] = target: T1, human SIRPαV1 extracellular domain + His-tag (NP_542970.1) (human, UniProt P78324 31-373)
# T1 construct: also called hSIRPαV1; HuSIRPαV1
# Experimental: (§1) The binding affinity of anti-SIRPα antibodies to the various SIRPα analytes is determined by surface plasmon resonance (SPR) using a ProteOn XPR36 (Bio-Rad). The running buffer for this experiment and all dilutions (except where stated) are done in 1×HBS-EP+. […] The sensorchip is deactivated with 1M ethanolamine HCl for 420 sec at a flowrate of 10 μl/min.
# (§2) The analyte is injected over the captured antibody for 300 sec at a flowrate of 30 μl/min. The dissociation is done for 600 sec. Two-fold serial dilutions of each SIRP protein (Extracellular Domain+His-Tag) are injected as analyte with the highest concentrations indicated in table 36 below.
# [2] = target: T2, human SIRPαV2 extracellular domain + His-tag (CAA71403.1) (human, UniProt P78324 31-373)
# T2 construct: also called hSIRPαV2; HuSIRPαV2
# T2 sequence (P78324 other isoform, or with tags, fused parts or gaps): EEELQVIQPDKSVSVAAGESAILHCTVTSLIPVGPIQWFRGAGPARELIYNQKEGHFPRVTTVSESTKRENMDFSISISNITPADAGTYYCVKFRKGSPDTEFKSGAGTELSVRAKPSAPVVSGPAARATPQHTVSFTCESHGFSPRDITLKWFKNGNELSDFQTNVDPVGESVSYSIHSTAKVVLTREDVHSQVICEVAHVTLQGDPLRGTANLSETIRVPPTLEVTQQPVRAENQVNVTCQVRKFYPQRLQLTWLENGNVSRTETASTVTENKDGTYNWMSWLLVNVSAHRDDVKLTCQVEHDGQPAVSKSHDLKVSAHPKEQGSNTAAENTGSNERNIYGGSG
# Experimental: as §1, §2
# [3] = target: T3, human SIRPβ1 extracellular domain + His-tag (NP_006056.2) (human, UniProt O00241 30-371)
# T3 construct: also called hSIRPβ1; HuSIRPβ1
# T3 sequence (O00241 other isoform, or with tags, fused parts or gaps): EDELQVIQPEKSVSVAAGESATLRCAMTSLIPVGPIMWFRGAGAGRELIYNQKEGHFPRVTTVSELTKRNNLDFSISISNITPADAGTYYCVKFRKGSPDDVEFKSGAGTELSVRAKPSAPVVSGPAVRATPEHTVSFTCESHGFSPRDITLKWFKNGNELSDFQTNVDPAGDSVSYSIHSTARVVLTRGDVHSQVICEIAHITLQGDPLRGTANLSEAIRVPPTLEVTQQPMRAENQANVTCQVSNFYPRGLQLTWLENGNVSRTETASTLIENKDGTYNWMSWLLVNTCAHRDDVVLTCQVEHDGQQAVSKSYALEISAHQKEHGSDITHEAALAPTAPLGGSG
# Experimental: as §1, §2
# [4] = target: T4, human SIRPβL/SIRPβ1v3 extracellular domain + His-tag (NP_001129316.1) (human, UniProt Q5TFQ8 30-371)
# T4 construct: also called hSIRPβ1v3; HuSIRPβ1v3
# T4 sequence (Q5TFQ8 other isoform, or with tags, fused parts or gaps): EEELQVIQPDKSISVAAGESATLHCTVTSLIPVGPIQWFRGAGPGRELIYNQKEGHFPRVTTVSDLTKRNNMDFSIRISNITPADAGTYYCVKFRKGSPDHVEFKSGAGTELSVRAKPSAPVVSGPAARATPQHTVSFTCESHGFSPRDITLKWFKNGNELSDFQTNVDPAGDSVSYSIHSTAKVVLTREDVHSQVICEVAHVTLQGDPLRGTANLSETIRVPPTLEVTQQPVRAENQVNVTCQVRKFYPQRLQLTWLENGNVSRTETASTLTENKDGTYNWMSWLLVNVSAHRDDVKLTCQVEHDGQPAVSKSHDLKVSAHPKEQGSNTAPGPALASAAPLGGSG
# Experimental: as §1, §2
# [5] = target: T5, human SIRPγ extracellular domain + His-tag (NP_061026.2) (human, UniProt Q9P1W8 29-360)
# T5 construct: also called hSIRPγ; HuSIRPγ
# T5 sequence (Q9P1W8 29-360): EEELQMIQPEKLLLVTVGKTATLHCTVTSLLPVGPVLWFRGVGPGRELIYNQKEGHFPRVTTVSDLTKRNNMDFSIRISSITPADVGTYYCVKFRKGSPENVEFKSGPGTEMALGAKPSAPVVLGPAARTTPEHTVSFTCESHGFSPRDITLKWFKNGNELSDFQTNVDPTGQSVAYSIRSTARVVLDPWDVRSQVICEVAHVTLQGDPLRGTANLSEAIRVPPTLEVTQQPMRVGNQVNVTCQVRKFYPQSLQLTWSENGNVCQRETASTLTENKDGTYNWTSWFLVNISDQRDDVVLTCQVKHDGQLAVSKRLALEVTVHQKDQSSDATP
# Experimental: as §1, §2
# T1 sequence (P78324 other isoform, or with tags, fused parts or gaps): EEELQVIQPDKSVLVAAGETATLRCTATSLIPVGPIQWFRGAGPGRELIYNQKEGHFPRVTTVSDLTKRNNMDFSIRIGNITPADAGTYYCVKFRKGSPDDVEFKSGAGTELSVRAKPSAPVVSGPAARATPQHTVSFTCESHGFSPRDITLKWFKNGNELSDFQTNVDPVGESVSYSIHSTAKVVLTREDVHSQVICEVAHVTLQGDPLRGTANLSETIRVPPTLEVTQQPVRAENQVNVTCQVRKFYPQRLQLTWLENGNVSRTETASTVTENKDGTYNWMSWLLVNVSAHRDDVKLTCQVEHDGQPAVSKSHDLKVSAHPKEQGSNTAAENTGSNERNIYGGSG
Binder,Kd [1],Kd [2],binding result [3],Kd [4],binding result [5],Kd [3]
"Antibody E14 (antibody, human IgG1, kappa, L234A L235A, V domains shown) VH: QVQLQESGPGLVRPSETLSLTCTVSGGSIRNYYWSWIRQPPGKGLEWIGFIYYNGRTFYNPSLKSRVTISLDKSKNQFSLKMTSVTAADTAVYYCARVRAYSGIGLDGTDVWGQGTTVTVSS VL: DIVMTQSPLSLPVTPGEPASISCKSSQSLLYSNAYNYLDWYLQRPGQSPQLLIYLGSNRASGVPDRFSGSGSGTDFTLKISRVEAEDVGVYYCMQALQTPLTFGGGTKVEIKR",1.84 nM,1.36 nM,no binding (tested: 1000 nM),4.8 nM,no binding (tested: 1000 nM),
"Antibody E17 (antibody, human IgG1, kappa, L234A L235A, V domains shown) VH: QVQLQESGPGLVRPSETLSLTCTVSGGSIRNYYWSWIRQPPGKGLEWMGFIYDNGRTFYNPSLKSRVTISLDMSMNQFSLKMTSVTAADTAVYYCARVRAYSGIGLDGTDVWGQGTTVTVSS VL: DIVMTQSPLSLPVTPGEPASISCKSSQSLLYSNAYNYLDWYLQRPGQSPQLLIYLGSNRASGVPDRFSGSGSGTDFTLKISRVEAEDVGVYYCMQALQTPLTFGGGTKVEIKR",2.36 nM,0.797 nM,no binding (tested: 1000 nM),5.32 nM,no binding (tested: 1000 nM),
"Antibody E21 (antibody, human IgG1, kappa, L234A L235A, V domains shown) VH: QVQLQESGPGLVRPSETLSLTCTVSGGSIRNYYWSWIRQPPGKGLEWIGFIYYTGRTFYNPSLKSRVTISLDMSKNQFSLKMTSVTAADTAVYYCARVRAYSGIGLDGTDVWGQGTTVTVSS VL: DIVMTQSPLSLPVTPGEPASISCKSSQSLLYSNAYNYLDWYLQRPGQSPQLLIYLGSNRASGVPDRFSGSGSGTDFTLKISRVEAEDVGVYYCMQALQTPLTFGGGTKVEIKR",4.46 nM,1.39 nM,no binding (tested: 1000 nM),8.84 nM,no binding (tested: 1000 nM),

# Continued by falling Kd [1], values first:
Kd [1],Kd [2],binding result [3],Kd [4],binding result [5],Kd [3],Binder
3.42 nM,1.11 nM,,8.48 nM,no binding (tested: 1000 nM),435 nM,"Antibody E20 (antibody, human IgG1, kappa, L234A L235A, V domains shown) VH: QVQLQESGPGLVRPSETLSLTCTVSGGSIRNYYWSWIRQPPGKGLEWIGFIYYTGRTFYNPSLKSRVTISLDMSINQFSLKMTSVTAADTAVYYCARVRAYSGIGLDGTDVWGQGTTVTVSS VL: DIVMTQSPLSLPVTPGEPASISCKSSQSLLYSNAYNYLDWYLQRPGQSPQLLIYLGSNRASGVPDRFSGSGSGTDFTLKISRVEAEDVGVYYCMQALQTPLTFGGGTKVEIKR"
2.52 nM,0.97 nM,,4.74 nM,no binding (tested: 1000 nM),1660 nM,"Antibody E19 (antibody, human IgG1, kappa, L234A L235A, V domains shown) VH: QVQLQESGPGLVRPSETLSLTCTVSGGSIRNYYWSWIRQPPGKGLEWIGFIYYTGRTFYNPSLKSRVTISLDMSKNQFSLKMTSVTAADTAVYYCARVRAYSGIGLDGTDVWGQGTTVTVSS VL: DIVMTQSPLSLPVTPGEPASISCKSSQSLLYSNGYAYLDWYLQRPGQSPQLLIYQGSNRASGVPDRFSGSGSGTDFTLKISRVEAEDVGVFYCMQALQTPLTFGGGTKVEIKR"
2.46 nM,0.898 nM,no binding (tested: 1000 nM),4.8 nM,no binding (tested: 1000 nM),,"Antibody E18 (antibody, human IgG1, kappa, L234A L235A, V domains shown) VH: QVQLQESGPGLVRPSETLSLTCTVSGGSIRNYYWSWIRQPPGKGLEWIGFIYYTGRTFYNPSLKSRVTISLDMSKNQFSLKMTSVTAADTAVYYCARVRAYSGIGLDGTDVWGQGTTVTVSS VL: DIVMTQSPLSLPVTPGEPASISCKSSQSLLYSNGYAYLDWYLQRPGQSPQLLIYLGSNRASGVPDRFSGSGSGTDFTLKISRVEAEDVGVYYCMQALQTPLTFGGGTKVEIKR"
1.91 nM,0.737 nM,no binding (tested: 1000 nM),4.56 nM,no binding (tested: 1000 nM),,"Antibody E15 (antibody, human IgG1, kappa, L234A L235A, V domains shown) VH: QVQLQESGPGLVRPSETLSLTCTVSGGSIRNYYWSWIRQPPGKGLEWIGFIYYTGRTFYNPSLKSRVTISLDMSINQFSLKMTSVTAADTAVYYCARVRAYSGIGLDGTDVWGQGTTVTVSS VL: DIVMTQSPLSLPVTPGEPASISCKSSQSLLYSNGYAYLDWYLQRPGQSPQLLIYLGSNRASGVPDRFSGSGSGTDFTLKISRVEAEDVGVYYCMQALQTPLTFGGGTKVEIKR"
